These results are taken from patent US20030027314.

Data set [1] is described as follows: CD thermal melt, homodimer, 150 mM KCl.
The nature of data set [2]: CD thermal melt, homodimer.
Data set [3] is described as follows: thermal melting curve, homodimer (FIG. 4).
Data set [4] in a line: thermal melting curve, homodimer (FIG. 3).
Data set [5] in a line: thermal melting curve, homodimer (FIG. 4). This is another data set of the same source.
The nature of data set [6]: CD thermal melt, homodimer, low salt (50 mM KCl).
Data set [7] in a line: thermal melting curve, homodimer (FIG. 3). This is another data set of the same source.

B1: 2heptad-F (protein)
chain: ASMTGGQQMGRDPGGGLEKEAEELEQENAELEQEVLELESRNDRLRKEVEQLERELDTLRGIFRQLPESSLVKAMGNCA
For orientation: Tm means the temperature at which the thermal transition is half complete. For B1, the midpoint of thermal melting (Tm) in data set [1] worked out at 24.8 °C.

B2: GBF-C/EBP chimeric protein (GBF basic region on the C/EBP leucine zipper) (protein)
chain: PVKDERELKRQKRKQSNRESARRSRLRNEAECEQTQQKVLELTSDNDRLRKRVEQLSRELDTLRGIFRQLPESSLVKAMGNCA
As to B2, the “difference of homodimer Tm from C/EBP” value in data set [2] is “as homodimers showed a Tm within 1 °C of C/EBP”. Besides, the Tm in data set [1] was 50.2 °C.

B3: VBP-C/EBP chimeric protein (VBP basic region on the C/EBP leucine zipper) (protein)
chain: ASMTGGQQMGRDPLEEKVFVPDEQKDEKYWTRRKKNNVAAKRSRDARRLKENQTQQKVLELTSDNDRLRKRVEQLSRELDTLRGIFRQLPESSLVKAMGNCA
B3: in data set [2], the “difference of homodimer Tm from C/EBP” value was “as homodimers showed a Tm within 1 °C of C/EBP”. Besides, the Tm in data set [1] stood at 50 °C.

B4: 4heptad-Fos (c-Fos with the basic region replaced by four acidic heptad repeats) (protein)
chain: MASMTGGQQMGRDPDLEQRAEELARENEELEKEAEELEQENAELEAETDQLEDEKSALQTEIANLLKEKEKLEFILAAHRPACKIP
On to B4, for which the Tm entry in data set [3] was “homodimerization of acidically modified c-Fos ... had a melting temperature of 25 °C”.

B5: 4heptadCREB (CREB with 4 heptad repeats appended at the amino terminus) (protein)
chain: ASMTGGQQMGRDPDLEQRAEELARENEELEKEAEELEQENAELENRVAVLENQNKTLIEELKALKDLYCHKSD
On to B5, for which the Tm entry in data set [4] is “(4heptadCREB homodimerization) is 22 °C”.

B6: c-Jun (unmodified) (protein, from a related filing)
chain: PLSPIDMESQERIKAERKRMRNRIAASKCRKRKLERIARLEEKVKTLKAQNSELASTANMLREQVAQLKQKVMNHVNSGCQLMLTQQLQTF
For B6, the Tm result in data set [5] was “homodimerization of unmodified c-Jun had a melting temperature of 29.4 °C”.

B7: C/EBP bZIP domain (chimeric GCN4-C/EBP protein) (protein)
chain: SEYQPSLFALNPMGFSPLDGSKSTNENVSASTSTAKPMVGQLIFDKFIKTEEDPGKAKKSVDKNSNEYRVRRERNNIAVRKSRDKAKQRNVETQQKVLELTSDNDRLRKRVEQLSRELDTLRGIFRQLPESSLVKAMGNCA
As for B7, in data set [2], the “fall of Tm in 50 mM KCl against 150 mM KCl” value is “less stable by 4 °C in 50 mM KCl compared with 150 mM KCl”. Moreover, the values for the Tm in data set [1] and in data set [6] were 49.5 °C and 45.8 °C, respectively.

B8: 1heptad-F (protein)
chain: ASMTGGQQMGRDPGGGLEQENAELEQEVLELESRNDRLRKEVEQLERELDTLRGIFRQLPESSLVKAMGNCA
B8: the Tm in data set [1] was 29 °C.

B9: CREB (unmodified) (protein, from a related filing)
chain: MASSPALPTQPAEEAARKREVRLMKNREAARECRRKKKEYVKCLENRVAVLENQNKTLIEELKALKDLYCHKSD
As to B9, the Tm entry in data set [7] is “the melting temperature of unmodified CREB homodimerization is 47 °C”.

B10: 3heptad-F (protein)
chain: ASMTGGQQMGRDPGGGLARENEELEKEAEELEQENAELEQEVLELESRNDRLRKEVEQLERELDTLRGIFRQLPESSLVKAMGNCA
For the protein B10, in data set [1], the Tm is 28.3 °C.

B11: 0heptad-F (F zipper with the basic region deleted) (protein)
chain: ASMTGGQQMGRDPGGGTQQEVLELESRNDRLRKEVEQLERELDTLRGIFRQLPESSLVKAMGNCA
For B11, in data set [1], the Tm is 30 °C.

B12: 4heptad-F (protein)
chain: ASMTGGQQMGRDPGGGLEQRAEELARENEELEKEAEELEQENAELEQEVLELESRNDRLRKEVEQLERELDTLRGIFRQLPESSLVKAMGNCA
Consider B12, for which the Tm in data set [1] worked out at 15.2 °C.
